The Kd is the equilibrium constant for the complex coming apart. High values mean a looser complex, low ones a tighter complex.

Data on one molecule can be found in patent US20220332804A1 (CSL INNOVATION, published 2022).

What all share (test): SPR, antibody captured, C2 as analyte;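 further: biacore at 37 °C, anti-C2 mAbs held by immobilised goat anti-human IgG, C2 alanine or serine mutants injected, double-referenced sensorgrams fitted to a 1:1 kinetic or steady-state model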
A general note: SPR reads the build-up and loss of mass on a sensor chip optically.

One test deals with T1, human C2 N380A (human, UniProt P06681 21-752).
T1 sequence: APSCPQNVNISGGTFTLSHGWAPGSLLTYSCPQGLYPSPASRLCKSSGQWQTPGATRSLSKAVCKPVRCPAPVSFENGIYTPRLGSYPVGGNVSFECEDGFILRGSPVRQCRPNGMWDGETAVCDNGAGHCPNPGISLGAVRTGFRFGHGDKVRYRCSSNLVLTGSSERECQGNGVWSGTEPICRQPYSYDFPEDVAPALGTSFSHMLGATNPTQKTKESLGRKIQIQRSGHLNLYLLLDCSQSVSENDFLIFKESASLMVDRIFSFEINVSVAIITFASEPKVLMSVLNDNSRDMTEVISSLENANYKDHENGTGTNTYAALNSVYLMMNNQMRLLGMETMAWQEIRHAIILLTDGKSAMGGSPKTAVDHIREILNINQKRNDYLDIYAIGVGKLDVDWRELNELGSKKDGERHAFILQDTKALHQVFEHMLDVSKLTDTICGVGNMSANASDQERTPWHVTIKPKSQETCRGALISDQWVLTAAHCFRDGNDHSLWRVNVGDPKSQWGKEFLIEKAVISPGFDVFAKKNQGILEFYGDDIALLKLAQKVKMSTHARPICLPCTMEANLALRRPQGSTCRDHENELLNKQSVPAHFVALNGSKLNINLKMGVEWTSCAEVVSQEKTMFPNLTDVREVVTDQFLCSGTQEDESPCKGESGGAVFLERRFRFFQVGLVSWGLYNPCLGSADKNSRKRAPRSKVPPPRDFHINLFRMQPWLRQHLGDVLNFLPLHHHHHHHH

The next test concerns the target T2, human C2 L453A (human, UniProt P06681 21-752).
T2 sequence: T1 sequence with A360N, L433A

The target in a further test is T3, human C2 D269A (human, UniProt P06681 21-752).
T3 sequence: T1 sequence with D249A, A360N

Another test has as its target T4, human C2 L271A (human, UniProt P06681 21-752).
T4 sequence: T1 sequence with L251A, A360N

Numbering of substitutions follows the chain as printed.

Protocol for human C2 D269A: (§1) Surface plasmon resonance (SPR, Biacore) was used for all binding affinity analyses. In brief, goat anti-human IgG was directly immobilised onto the carboxymethyl dextran surface of CM5 sensorchips to approximately 12,000 RU using standard NHS/EDC chemistry at pH 5. The immobilised antibody surface was pre-conditioned with ten injections of polyclonal human IgG (Privigen 60 s) prepared at 1 μg/mL. Ligands (anti-C2 mAbs) were captured at the beginning of each cycle as described below. An adjacent spot or flow cell in which only Polyclonal IgG was capture was used as a reference surface. The goat anti-human IgG Fc antibody surface was regenerate in 100 mM H3PO4, injected for 45 seconds at the end of each cycle. Experiments were performed at 37° C. and the flow rate of each experiment was kept constant at 30 μL/min.
(§2) Sensogram data was double-referenced against a reference anti-IgG surface (i.e. minus anti-C2 mAb) and blank buffer injections obtained within each experiment. The binding data was fit to 1:1 (kinetic or steady-state) model using local Rmax and null refraction index (RI=0) when appropriate. Buffers and solutions were filtered (0.22 μm) prior to use.
Protocol for human C2 L271A: as §1, §2
Protocol for human C2 L453A: as §1, §2
Protocol for human C2 N380A: as §1, §2

B1: RF16-242 (antibody, human IgG4 S228P, lambda, V domains shown)
VH: EVQLLQSGAEVKKPGESLKISCKGSGYSFTSYWIGWVRQMPGKGLEWMGIIYPGDSDTRYSPSFQGQVTISADKSISTAYLQWSSLKASDTAMYYCARRGHYGDYFDYWGQGTLVTVSS
VL: SYELTQPPSVSVSPGQTARITCSGDALPKKYAYWYHQKSGQAPVLVIYEDRRRPSEIPERFSGSSSGTMATLTITGAQVEDEGVYFCYSRDRAGNQRVFGGGTQLTVLG
notes: pH-dependent anti-C2 antibody from a phage display library
As for B1, the Kd with human C2 N380A is 10.2 nM; in the test with human C2 L453A it was 6.8 nM; in the test with human C2 D269A, 12.9 nM; with human C2 L271A it was 6.9 nM.
